Results published in paper doi:10.1101/2023.08.23.554525 (bioRxiv, 2023).

What was measured:
Conditions in all cases: both partners purified
[1] = target: H1 hemagglutinin (A/New Caledonia/20/1999(H1N1)), recombinant HA trimer used for electron microscopy (influenza A virus A/New …, UniProt Q6WG00); test: cryo-EM structure
[2] = target: biotinylated H1 A/Michigan/45/2015 (MI15) HA ectodomain (Influenza A virus A/Michigan/45/2015 …, UniProt A0A1J0CXU0, strain, biotin (site not stated)); test: BLI; Octet Red384; […]; Fab at 1600, 400, 100 and 25 nM; PBS + 1% BSA; 180 s association, 300 s dissociation
[3] = target: T1, biotinylated H1 A/NewCaledonia/20/1999 (NC99) HA ectodomain (Influenza A virus A/New …, UniProt Q6WG00, strain, biotin (site not stated)); test: as above
[4] = target: T1, biotinylated H1 A/NewCaledonia/20/1999 …; test: […] (MSD) binding assay; […]

Binder | binding result [1] | binding result [2] | binding result [3] | binding result [4]
2-2-1G06 Fab (Fab, V domains shown) VH: QVQLRESGPGLVKPSQTLSLTCTVSGDSISNGGLYWNWIRQRPGRGLEWIGYIYYNGVTTYNPSLRSRIAISLETAKNQLSLRLSSVSAADTAIYYCAREGWVPDYGGRNYYLDFWGQGTLVTVSS VL: DIQMTQSPSSLSASVGDRVTITCRASHNIQNFLNWYQQKPGKAPKLLIYAASTLQSGVPSRFSGSGSRTDFTLTISSLQPEDFAAYYCQQSYGLPRTFGQGTRLEIK | binds | binds | binds | –
2-2-1G06 monoclonal antibody (IgG1) (antibody, V domains shown, IgG1; copies: 2 + 2) VH: QVQLRESGPGLVKPSQTLSLTCTVSGDSISNGGLYWNWIRQRPGRGLEWIGYIYYNGVTTYNPSLRSRIAISLETAKNQLSLRLSSVSAADTAIYYCAREGWVPDYGGRNYYLDFWGQGTLVTVSS VL: DIQMTQSPSSLSASVGDRVTITCRASHNIQNFLNWYQQKPGKAPKLLIYAASTLQSGVPSRFSGSGSRTDFTLTISSLQPEDFAAYYCQQSYGLPRTFGQGTRLEIK | – | – | – | binds
1-1-1E04 Fab (Fab, V domains shown, Parent IgG1) VH: QVQLVQSGAQLRKPGSSVTVSCKASGDTFNSYSIHWVRQAPGQGLEWMGRIIPVFGMTHYAQRFRGRITVSADKSTRTAYMELTSLTSADTAMYYCARDGGDKFHSSGHFETNQGYFDHWGQGALVTVSS VL: QSVLTQPPSVSGAPGQRVTVSCTGSSSNLGATYEVHWYQQFPGTAPKLLIYGSTNRPSGVPERFSGSKSGTSASLTITGLQAEDEADYYCQSYDTSLRGFYVFGTGTKVTVL | binds | – | – | –
1-1-1F05 Fab (Fab, V domains shown, source: Expi293, transfected, IgG purified (Protein A); Fab by papain digestion, SEC) VH: QVQLQESGPGLVKPSATLSLTCTLSGGSLSTHYWSWIRQPPGKGLEYIGNIHYSGSTNYNPSLRSRVTISVGTSKNQFSLKLTSVTAADTAVYYCARDAPYSDFLSGVETGWFDPWGQGTLVIVSS VL: EIVMTQSPATLSVSPGERATLSCRASQSVSSNLAWYQQKPGQAPRLLIYGASTRATGIPARFSGSGSGTDFTLTISSLQSEDFAVYSCQQYNNWPWTFGQGTKVEIK | binds | – | – | –
